{"source": "paper PMC6191538", "biological_target": "Hoc- Soc- phage T4 particles (capsid) (phage T4) (UniProt P13332)", "assay": "co-sedimentation"}
{"substance": "Soc-PA (93 kDa)", "values": [{"measurement": "BC50 (half-maximal binding concentration)", "value": 1140, "unit": "nM"}]}
